Data from patent publication US9284543B2, “Neutral active soluble truncated PH20 polypeptides and uses thereof” (Halozyme, Inc., priority 2008, dated 2016).

B1: SPAM1-PPME: C-terminally truncated human PH20, precursor 474 aa (SEQ ID NO:26), mature 439 aa (SEQ ID NO:78) (protein, listed as Homo sapiens)
chain 1: MGVLKFKHIFFRSFVKSSGVSQIVFTFLLIPCCLTLNFRAPPVIPNVPFLWAWNAPSEFCLGKFDEPLDMSLFSFIGSPRINATGQGVTIFYVDRLGYYPYIDSITGVTVNGGIPQKISLQDHLDKAKKDITFYMPVDNLGMAVIDWEEWRPTWARNWKPKDVYKNRSIELVQQQNVQLSLTEATEKAKQEFEKAGKDFLVETIKLGKLLRPNHLWGYYLFPDCYNHHYKKPGYNGSCFNVEIKRNDDLSWLWNESTALYPSIYLNTQQSPVAATLYVRNRVREAIRVSKIPDAKSPLPVFAYTRIVFTDQVLKFLSQDELVYTFGETVALGASGIVIWGTLSIMRSMKSCLLLDNYMETILNPYIINVTLAAKMCSQVLCQEQGVCIRKNWNSSDYLHLNPDNFAIQLEKGGKFTVRGKPTLEDLEQFSEKFYCSCYSTLSCKEKADVKDTDAVDVCIADGVCIDAFLKPPME
chain 2: LNFRAPPVIPNVPFLWAWNAPSEFCLGKFDEPLDMSLFSFIGSPRINATGQGVTIFYVDRLGYYPYIDSITGVTVNGGIPQKISLQDHLDKAKKDITFYMPVDNLGMAVIDWEEWRPTWARNWKPKDVYKNRSIELVQQQNVQLSLTEATEKAKQEFEKAGKDFLVETIKLGKLLRPNHLWGYYLFPDCYNHHYKKPGYNGSCFNVEIKRNDDLSWLWNESTALYPSIYLNTQQSPVAATLYVRNRVREAIRVSKIPDAKSPLPVFAYTRIVFTDQVLKFLSQDELVYTFGETVALGASGIVIWGTLSIMRSMKSCLLLDNYMETILNPYIINVTLAAKMCSQVLCQEQGVCIRKNWNSSDYLHLNPDNFAIQLEKGGKFTVRGKPTLEDLEQFSEKFYCSCYSTLSCKEKADVKDTDAVDVCIADGVCIDAFLKPPME
modifications: HuPH20 precursor 1-474; Mature HuPH20 36-474
B2: SPAM1-KPPM: C-terminally truncated human PH20, precursor 473 aa (SEQ ID NO:27), mature 438 aa (SEQ ID NO:79) (protein, listed as Homo sapiens)
chain 1: MGVLKFKHIFFRSFVKSSGVSQIVFTFLLIPCCLTLNFRAPPVIPNVPFLWAWNAPSEFCLGKFDEPLDMSLFSFIGSPRINATGQGVTIFYVDRLGYYPYIDSITGVTVNGGIPQKISLQDHLDKAKKDITFYMPVDNLGMAVIDWEEWRPTWARNWKPKDVYKNRSIELVQQQNVQLSLTEATEKAKQEFEKAGKDFLVETIKLGKLLRPNHLWGYYLFPDCYNHHYKKPGYNGSCFNVEIKRNDDLSWLWNESTALYPSIYLNTQQSPVAATLYVRNRVREAIRVSKIPDAKSPLPVFAYTRIVFTDQVLKFLSQDELVYTFGETVALGASGIVIWGTLSIMRSMKSCLLLDNYMETILNPYIINVTLAAKMCSQVLCQEQGVCIRKNWNSSDYLHLNPDNFAIQLEKGGKFTVRGKPTLEDLEQFSEKFYCSCYSTLSCKEKADVKDTDAVDVCIADGVCIDAFLKPPM
chain 2: LNFRAPPVIPNVPFLWAWNAPSEFCLGKFDEPLDMSLFSFIGSPRINATGQGVTIFYVDRLGYYPYIDSITGVTVNGGIPQKISLQDHLDKAKKDITFYMPVDNLGMAVIDWEEWRPTWARNWKPKDVYKNRSIELVQQQNVQLSLTEATEKAKQEFEKAGKDFLVETIKLGKLLRPNHLWGYYLFPDCYNHHYKKPGYNGSCFNVEIKRNDDLSWLWNESTALYPSIYLNTQQSPVAATLYVRNRVREAIRVSKIPDAKSPLPVFAYTRIVFTDQVLKFLSQDELVYTFGETVALGASGIVIWGTLSIMRSMKSCLLLDNYMETILNPYIINVTLAAKMCSQVLCQEQGVCIRKNWNSSDYLHLNPDNFAIQLEKGGKFTVRGKPTLEDLEQFSEKFYCSCYSTLSCKEKADVKDTDAVDVCIADGVCIDAFLKPPM
modifications: HuPH20 precursor 1-473; Mature HuPH20 36-473
B3: SPAM1-LKPP: C-terminally truncated human PH20, precursor 472 aa (SEQ ID NO:28), mature 437 aa (SEQ ID NO:80) (protein, listed as Homo sapiens)
chain 1: MGVLKFKHIFFRSFVKSSGVSQIVFTFLLIPCCLTLNFRAPPVIPNVPFLWAWNAPSEFCLGKFDEPLDMSLFSFIGSPRINATGQGVTIFYVDRLGYYPYIDSITGVTVNGGIPQKISLQDHLDKAKKDITFYMPVDNLGMAVIDWEEWRPTWARNWKPKDVYKNRSIELVQQQNVQLSLTEATEKAKQEFEKAGKDFLVETIKLGKLLRPNHLWGYYLFPDCYNHHYKKPGYNGSCFNVEIKRNDDLSWLWNESTALYPSIYLNTQQSPVAATLYVRNRVREAIRVSKIPDAKSPLPVFAYTRIVFTDQVLKFLSQDELVYTFGETVALGASGIVIWGTLSIMRSMKSCLLLDNYMETILNPYIINVTLAAKMCSQVLCQEQGVCIRKNWNSSDYLHLNPDNFAIQLEKGGKFTVRGKPTLEDLEQFSEKFYCSCYSTLSCKEKADVKDTDAVDVCIADGVCIDAFLKPP
chain 2: LNFRAPPVIPNVPFLWAWNAPSEFCLGKFDEPLDMSLFSFIGSPRINATGQGVTIFYVDRLGYYPYIDSITGVTVNGGIPQKISLQDHLDKAKKDITFYMPVDNLGMAVIDWEEWRPTWARNWKPKDVYKNRSIELVQQQNVQLSLTEATEKAKQEFEKAGKDFLVETIKLGKLLRPNHLWGYYLFPDCYNHHYKKPGYNGSCFNVEIKRNDDLSWLWNESTALYPSIYLNTQQSPVAATLYVRNRVREAIRVSKIPDAKSPLPVFAYTRIVFTDQVLKFLSQDELVYTFGETVALGASGIVIWGTLSIMRSMKSCLLLDNYMETILNPYIINVTLAAKMCSQVLCQEQGVCIRKNWNSSDYLHLNPDNFAIQLEKGGKFTVRGKPTLEDLEQFSEKFYCSCYSTLSCKEKADVKDTDAVDVCIADGVCIDAFLKPP
modifications: HuPH20 precursor 1-472; Mature HuPH20 36-472
B4: SPAM1-FLKP: C-terminally truncated human PH20, precursor 471 aa (SEQ ID NO:29), mature 436 aa (SEQ ID NO:81) (protein, listed as Homo sapiens)
chain 1: MGVLKFKHIFFRSFVKSSGVSQIVFTFLLIPCCLTLNFRAPPVIPNVPFLWAWNAPSEFCLGKFDEPLDMSLFSFIGSPRINATGQGVTIFYVDRLGYYPYIDSITGVTVNGGIPQKISLQDHLDKAKKDITFYMPVDNLGMAVIDWEEWRPTWARNWKPKDVYKNRSIELVQQQNVQLSLTEATEKAKQEFEKAGKDFLVETIKLGKLLRPNHLWGYYLFPDCYNHHYKKPGYNGSCFNVEIKRNDDLSWLWNESTALYPSIYLNTQQSPVAATLYVRNRVREAIRVSKIPDAKSPLPVFAYTRIVFTDQVLKFLSQDELVYTFGETVALGASGIVIWGTLSIMRSMKSCLLLDNYMETILNPYIINVTLAAKMCSQVLCQEQGVCIRKNWNSSDYLHLNPDNFAIQLEKGGKFTVRGKPTLEDLEQFSEKFYCSCYSTLSCKEKADVKDTDAVDVCIADGVCIDAFLKP
chain 2: LNFRAPPVIPNVPFLWAWNAPSEFCLGKFDEPLDMSLFSFIGSPRINATGQGVTIFYVDRLGYYPYIDSITGVTVNGGIPQKISLQDHLDKAKKDITFYMPVDNLGMAVIDWEEWRPTWARNWKPKDVYKNRSIELVQQQNVQLSLTEATEKAKQEFEKAGKDFLVETIKLGKLLRPNHLWGYYLFPDCYNHHYKKPGYNGSCFNVEIKRNDDLSWLWNESTALYPSIYLNTQQSPVAATLYVRNRVREAIRVSKIPDAKSPLPVFAYTRIVFTDQVLKFLSQDELVYTFGETVALGASGIVIWGTLSIMRSMKSCLLLDNYMETILNPYIINVTLAAKMCSQVLCQEQGVCIRKNWNSSDYLHLNPDNFAIQLEKGGKFTVRGKPTLEDLEQFSEKFYCSCYSTLSCKEKADVKDTDAVDVCIADGVCIDAFLKP
modifications: HuPH20 precursor 1-471; Mature HuPH20 36-471

What was measured:
[1] = Microtiter hyaluronidase activity assay with biotinylated-hyaluronic acid; assay type: biochemical; settings: Table 6, 72 hour post transfection supernatant
CHO-S cells = assay: Western blot analysis of PH20 expression in media and cells after transient expression; assay type: cell-based, Chinese Hamster; settings: media versus cells
Outline: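 CHO-S cells were transiently transfected with mutant PH20-HZ24 plasmids using GeneJuice and expressed for 48-72 h at 37 °C, 5% CO2. Media and cells were harvested separately, with PI-PLC treatment used to release GPI-anchored protein. Non-reduced samples were blotted with rabbit anti-PH20 (0.5 μg/mL), and a band near 66 kDa was scored as PH20.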

| Molecule | pH 5.5 Activity [1] [Units/ml] | pH 7.4 Activity [1] [Units/ml] | Expressed in Media (CHO-S cells) |
| --- | --- | --- | --- |
| B1 | 1.341 | 1.2105 | YES |
| B2 | 0.9157 | 0.8595 | YES |
| B3 | 0.9 | 0.5445 | YES |
| B4 | 2.79 | 3.321 | YES |
